Where a SMILES comes first, the peptide text is derived from it.
Key:
TLR10 [1] = biological target: T1, TLR10 (Homo sapiens, UniProt Q9BXR5); test: mRNA display affinity selection against TLR10, NGS abundance; assay type: binding; design: Chimera protein (extracellular domain, amino acid 20-576;); Fc (chimera); purchased R&D system #6619-TR-050; details: TLR10 selection, NGS abundance rank; for rank in pulldown(+): –: not found in the final pulldown(+) libraries at the sequenced depth
T1 sequence (Q9BXR5 20-576): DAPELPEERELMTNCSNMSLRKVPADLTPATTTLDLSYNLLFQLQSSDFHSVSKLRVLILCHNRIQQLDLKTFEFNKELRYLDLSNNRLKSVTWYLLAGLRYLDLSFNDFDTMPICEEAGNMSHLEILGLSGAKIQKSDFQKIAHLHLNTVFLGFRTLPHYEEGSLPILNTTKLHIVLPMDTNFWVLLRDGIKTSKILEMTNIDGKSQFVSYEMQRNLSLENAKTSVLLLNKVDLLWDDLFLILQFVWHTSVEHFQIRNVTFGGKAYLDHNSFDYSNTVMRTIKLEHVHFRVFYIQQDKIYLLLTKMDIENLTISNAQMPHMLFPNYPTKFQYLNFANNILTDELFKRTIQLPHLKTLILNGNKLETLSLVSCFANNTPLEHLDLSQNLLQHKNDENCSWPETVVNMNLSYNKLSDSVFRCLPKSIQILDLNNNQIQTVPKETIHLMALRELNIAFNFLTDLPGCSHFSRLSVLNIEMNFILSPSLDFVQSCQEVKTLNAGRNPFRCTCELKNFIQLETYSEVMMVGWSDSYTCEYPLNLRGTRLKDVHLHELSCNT

TLR10 [2] = biological target: T1, TLR10; test: Single-round mRNA display binding assay (qPCR), TLR10; details: ratio of cDNA recoveries (qPCR), TLR10 pulldown over beads only, single-round selection
Serum stability assay = assay type: in vitro ADME; details: pH 7.6; human serum, 37 °C, LC/MS; read-out: serum stability τ1/2 (converted)
Procedure: Next, we tested the metabolic stability of the discovered thiopeptides. The compounds were incubated in human serum at 37 °C in the presence of an internal control, and the amounts of the remaining analytes were quantified by LC/MS (Figures S27 and 28). […] At the other extreme, IR11 rapidly degraded in human serum with τ1/2 = 0.5 h. […]
Kinetic parameters and affinities of the […]
2.12. Thiopeptide metabolic stability experiments
The mixtures were stirred
well and transferred to a 37 °C thermostat. […]

IRAK4 = biological target: T2, IRAK4 (Homo sapiens, UniProt Q9NWZ3); test: mRNA display affinity selection against IRAK4, NGS abundance; assay type: binding; design: acids 1-460; NP_057207.2) was purchased from Carna Biosciences; purchased Carna Biosciences (Kobe, Japan); details: Top100 selection hits, NGS
T2 sequence (Q9NWZ3 1-460): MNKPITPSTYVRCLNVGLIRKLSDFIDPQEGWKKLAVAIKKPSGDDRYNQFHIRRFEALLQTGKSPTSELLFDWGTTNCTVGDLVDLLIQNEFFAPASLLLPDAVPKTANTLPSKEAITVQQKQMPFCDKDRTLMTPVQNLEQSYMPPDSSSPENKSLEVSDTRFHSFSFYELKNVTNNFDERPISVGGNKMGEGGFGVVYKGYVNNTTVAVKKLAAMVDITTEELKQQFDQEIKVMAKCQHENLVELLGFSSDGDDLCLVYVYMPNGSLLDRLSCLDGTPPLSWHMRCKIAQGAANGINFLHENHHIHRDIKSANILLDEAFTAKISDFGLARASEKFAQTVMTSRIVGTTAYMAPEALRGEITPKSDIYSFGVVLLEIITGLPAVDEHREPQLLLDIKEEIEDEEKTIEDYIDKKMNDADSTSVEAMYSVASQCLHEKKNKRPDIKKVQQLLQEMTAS

Compound	rank in pulldown(–) (TLR10 [1])	rank in pulldown(+) (TLR10 [1])	display P/N ratio (TLR10 [2])	half-life at 10 µM (Serum stability assay)	Library fraction (IRAK4; IRAK4 selection pulldown (+))	Raw reads (IRAK4; IRAK4 selection pulldown (+))	Library fraction (IRAK4; IRAK4 selection pulldown (-))	Raw reads (IRAK4; IRAK4 selection pulldown (-))
C=C1NC(=O)[C@H](Cc2c[nH]c3ccccc23)NC(=O)CNC(=O)[C@H](C(C)C)NC(=O)[C@H](CC(N)=O)NC(=O)CNC(=O)CNC(=O)[C@H](Cc2ccc(O)cc2)NC(=O)[C@@H]2CCCN2C(=O)[C@H](CC(N)=O)NC(=O)[C@H]([C@@H](C)O)NC(=O)[C@H](Cc2c[nH]c3ccccc23)NC(=O)c2ccc(-c3nc(C(=O)OC)cs3)nc2-c2csc1n2 [TL1] (HELM PEPTIDE1{W.T.N.P.Y.G.G.N.V.G.W}|CHEM1{[C=C(N[*:2])c1nc(-c2nc(-c3nc(C(=O)OC)cs3)ccc2C(=O)[*:1])cs1]}$PEPTIDE1,CHEM1,1:R1-1:R1|PEPTIDE1,CHEM1,11:R2-1:R2$$$V2.0; bridges inferred)	1	3	127	4.6 ± 0.3 h	–	–	–	–
C=C1NC(=O)[C@H](Cc2ccc(O)cc2)NC(=O)[C@H](C)NC(=O)[C@H](C(C)C)NC(=O)[C@H](CCCCN)NC(=O)CNC(=O)[C@H](CC(C)C)NC(=O)[C@H](CCCNC(=N)N)NC(=O)[C@@H]2CCCN2C(=O)[C@H](Cc2ccccc2)NC(=O)[C@H](CCCC)NC(=O)[C@H](CCCC)NC(=O)[C@H]([C@@H](C)O)NC(=O)[C@H](Cc2c[nH]c3ccccc23)NC(=O)c2ccc(-c3nc(C(=O)OC)cs3)nc2-c2csc1n2 [TL9] (HELM PEPTIDE1{W.T.[Nle].[Nle].F.P.R.L.G.K.V.A.Y}|CHEM1{[C=C(N[*:2])c1nc(-c2nc(-c3nc(C(=O)OC)cs3)ccc2C(=O)[*:1])cs1]}$PEPTIDE1,CHEM1,1:R1-1:R1|PEPTIDE1,CHEM1,13:R2-1:R2$$$V2.0)	37	22	235	1.7 ± 0.1 h	–	–	–	–
SQRYKRRNYK	–	–	–	–	0.0009	92	0.00037	49
SQRYRNRNYQ	–	–	–	–	0.0023	242	0.00064	85
SRLWRRRIFQ	–	–	–	–	0.0001	10	9e-5	12
SRLWRRRIYH	–	–	–	–	0.009	985	0.014	1900
STLWNKKIYK	–	–	–	–	0.0005	54	0.00019	26
STRWKNRIYR	–	–	–	–	0.004	433	0.003	390
STRWKRRNYT	–	–	–	–	0.0004	39	0.00016	22
STRWNNRIWR	–	–	–	–	0.0001	9	–	–
STYRKRRIWY	–	–	–	–	0.0001	14	–	–
STYWKSRIYT	–	–	–	–	0.0002	23	–	–
SVCWKRRNCH	–	–	–	–	0.0002	24	0.00016	22
SVFWNRRIYK	–	–	–	–	0.0006	68	0.00016	21
SVLWKKRVWQ	–	–	–	–	0.003	318	0.00139	186
SVLWKRKIHN	–	–	–	–	0.0012	125	0.001	137
SVLWKRRIAK	–	–	–	–	0.010	1112	0.011	1441
SVLWKRRIWK	–	–	–	–	0.033	3569	0.020	2704
SVLWRKRIYR	–	–	–	–	0.0037	391	0.00143	191
SVRWKHRIYK	–	–	–	–	0.0003	29	0.00012	16
SVRWKRRDYR	–	–	–	–	0.0046	492	0.007	903
TADGLILTPWVT	–	–	–	–	0.0001	15	0.00281	375

Compound	rank in pulldown(–) (TLR10 [1])	rank in pulldown(+) (TLR10 [1])	display P/N ratio (TLR10 [2])	half-life at 10 µM (Serum stability assay)	Library fraction (IRAK4; IRAK4 selection pulldown (+))	Raw reads (IRAK4; IRAK4 selection pulldown (+))	Library fraction (IRAK4; IRAK4 selection pulldown (-))	Raw reads (IRAK4; IRAK4 selection pulldown (-))
TCLWKRRIYS	–	–	–	–	0.0001	10	–	–
TLCWKRRTWK	–	–	–	–	0.026	2745	0.018	2408
TLCWRRRNYK	–	–	–	–	0.024	2567	0.011	1518
TLLWKRRIYK	–	–	–	–	0.0019	207	0.00132	176
TLLWKRRNWA	–	–	–	–	0.0007	76	0.00043	57
TMKRIVINWGWG	–	–	–	–	–	–	0.0001	14
TMLWKRRIHA	–	–	–	–	0.003	323	0.00136	181
TMLWKRRIYR	–	–	–	–	0.044	4661	0.029	3881
TMLWKRRLFR	–	–	–	–	0.0001	9	–	–
TMRWKRRNWA	–	–	–	–	–	–	0.00026	35
TQFWKRRNYA	–	–	–	–	0.0002	26	7e-5	10
TQRVRNRCYK	–	–	–	–	0.013	1424	0.00437	584
TQRWKCRLYR	–	–	–	–	0.0001	12	–	–
TQRWKHRLYK	–	–	–	–	0.0006	68	0.00032	43
TQRWKQKNWS	–	–	–	–	0.0001	9	–	–
TQRWKRRNYT	–	–	–	–	0.0013	136	0.0006	80
TQRWNNRNWC	–	–	–	–	0.0003	29	0.00014	19
TQRWRARNYK	–	–	–	–	0.006	624	0.00431	576
TQRYLSKNYK	–	–	–	–	0.0001	12	0.00025	33
TQRYRWRNYK	–	–	–	–	0.0001	9	–	–
TQYWKRRIYN	–	–	–	–	0.007	748	0.00241	322

— PMC10683472, “Deep Learning-Driven Library Design for the De Novo Discovery of Bioactive Thiopeptides” (ACS Central Science, 2023)
